The experiment deals with Human TLR4/MD-2 complex (human) (UniProt O00206). Nature of the experiment: SPR; Biacore T200; TLR4/MD-2 amine-coupled on CM5 (1100 RU); GST-A-box, GST-B-box (150-5000 nM), A-box or GST injected at 30 μL/min for 60 s, 25 °C, dissociation 1 min; HBS-EP pH 7.4; GST-A-box: association and dissociation fitted separately to a 1:1 model; GST-B-box: steady-state affinity model; apparent KD. Background: Surface plasmon resonance follows binding to a sensor surface in real time, without labels.
Chain of Human TLR4/MD-2 complex (human) (O00206 24-631, chain 1 of 2): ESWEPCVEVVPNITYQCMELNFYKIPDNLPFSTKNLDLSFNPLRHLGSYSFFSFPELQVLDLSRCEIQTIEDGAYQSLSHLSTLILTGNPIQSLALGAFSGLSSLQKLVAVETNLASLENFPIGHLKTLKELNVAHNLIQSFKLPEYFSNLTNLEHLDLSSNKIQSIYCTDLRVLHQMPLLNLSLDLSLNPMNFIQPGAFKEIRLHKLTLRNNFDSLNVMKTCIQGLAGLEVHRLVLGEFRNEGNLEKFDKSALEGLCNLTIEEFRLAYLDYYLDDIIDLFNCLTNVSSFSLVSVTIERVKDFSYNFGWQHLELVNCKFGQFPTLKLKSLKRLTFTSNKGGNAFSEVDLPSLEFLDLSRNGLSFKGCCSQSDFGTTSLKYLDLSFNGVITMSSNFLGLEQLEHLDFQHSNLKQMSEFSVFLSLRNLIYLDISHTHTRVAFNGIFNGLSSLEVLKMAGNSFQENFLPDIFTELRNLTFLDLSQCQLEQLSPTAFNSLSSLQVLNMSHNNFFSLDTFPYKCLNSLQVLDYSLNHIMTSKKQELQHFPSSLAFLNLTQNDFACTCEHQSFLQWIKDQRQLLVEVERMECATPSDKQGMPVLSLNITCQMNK
Chain of Human TLR4/MD-2 complex (human) (Q9Y6Y9 19-160, chain 2 of 2, further chain): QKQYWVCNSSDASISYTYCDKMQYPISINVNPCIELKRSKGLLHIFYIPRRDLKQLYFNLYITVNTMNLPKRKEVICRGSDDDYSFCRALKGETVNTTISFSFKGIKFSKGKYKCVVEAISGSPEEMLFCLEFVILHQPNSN

Take “Recombinant GST-B-box (domain or fragment)”: the Kd was found to be 5.78 µM.

Values taken from paper PMC6085627.
